The target of data set [1] is Csy complex (P. aeruginosa) (UniProt Q02ML9). In words: MST.
The next data set addresses Cas2/3 (P. aeruginosa) (UniProt Q02ML8). In words: SPR.
In data set [2] the target is T1, Csy complex (Cas8f, Cas5f, Cas7f, Cas6f, crRNA) (Pseudomonas aeruginosa, UniProt Q02ML9;Q02MM0;Q02MM1;Q02MM2 1-434;1-327;1-342;1-187).
T1 sequence 1: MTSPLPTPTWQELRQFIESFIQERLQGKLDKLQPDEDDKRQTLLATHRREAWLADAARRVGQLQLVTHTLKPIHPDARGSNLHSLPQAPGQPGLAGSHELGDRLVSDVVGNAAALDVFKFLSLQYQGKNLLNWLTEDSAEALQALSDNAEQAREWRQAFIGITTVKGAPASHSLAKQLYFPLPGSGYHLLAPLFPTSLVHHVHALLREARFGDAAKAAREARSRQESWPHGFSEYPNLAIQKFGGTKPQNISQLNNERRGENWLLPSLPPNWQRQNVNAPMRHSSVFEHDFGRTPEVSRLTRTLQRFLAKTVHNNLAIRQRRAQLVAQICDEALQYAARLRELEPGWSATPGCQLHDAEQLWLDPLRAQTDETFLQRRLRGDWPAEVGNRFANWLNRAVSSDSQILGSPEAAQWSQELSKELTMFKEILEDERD
T1 sequence 2: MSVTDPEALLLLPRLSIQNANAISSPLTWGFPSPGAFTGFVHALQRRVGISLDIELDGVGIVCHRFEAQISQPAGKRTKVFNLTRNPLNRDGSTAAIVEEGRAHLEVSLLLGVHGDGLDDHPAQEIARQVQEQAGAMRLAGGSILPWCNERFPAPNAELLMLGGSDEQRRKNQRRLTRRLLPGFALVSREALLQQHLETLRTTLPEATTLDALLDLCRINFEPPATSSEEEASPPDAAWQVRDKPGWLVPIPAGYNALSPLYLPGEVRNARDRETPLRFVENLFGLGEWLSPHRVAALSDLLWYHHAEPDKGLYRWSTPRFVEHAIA
T1 sequence 3: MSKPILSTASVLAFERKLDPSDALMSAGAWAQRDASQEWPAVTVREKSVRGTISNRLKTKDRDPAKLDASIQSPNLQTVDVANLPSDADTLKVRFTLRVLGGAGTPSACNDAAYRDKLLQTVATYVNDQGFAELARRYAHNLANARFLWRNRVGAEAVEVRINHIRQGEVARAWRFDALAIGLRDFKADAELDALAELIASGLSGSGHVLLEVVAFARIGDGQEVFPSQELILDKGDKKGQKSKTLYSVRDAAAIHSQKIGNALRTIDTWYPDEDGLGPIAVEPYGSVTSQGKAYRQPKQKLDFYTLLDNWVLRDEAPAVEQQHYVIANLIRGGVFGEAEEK
T1 sequence 4: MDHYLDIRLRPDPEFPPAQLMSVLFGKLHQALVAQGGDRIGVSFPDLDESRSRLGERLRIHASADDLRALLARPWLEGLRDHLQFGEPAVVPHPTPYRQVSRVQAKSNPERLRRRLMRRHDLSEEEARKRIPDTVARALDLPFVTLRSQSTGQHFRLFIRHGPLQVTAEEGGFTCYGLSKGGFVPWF
In words: EMSA.

For data set [3], the target named is Csy complex (Cas8f, Cas5f, Cas7f, Cas6f, crRNA);Cas2/3 (Pseudomonas aeruginosa;Pseudomonas …, UniProt Q02ML9;Q02MM0;Q02MM1;Q02MM2;Q02ML8 1-434;1-327;1-342;1-187;1-1076, |). In words: EMSA.
A further data set deals with T2, Cas2/3 (UniProt Q02ML8 1-1076).
T2 sequence: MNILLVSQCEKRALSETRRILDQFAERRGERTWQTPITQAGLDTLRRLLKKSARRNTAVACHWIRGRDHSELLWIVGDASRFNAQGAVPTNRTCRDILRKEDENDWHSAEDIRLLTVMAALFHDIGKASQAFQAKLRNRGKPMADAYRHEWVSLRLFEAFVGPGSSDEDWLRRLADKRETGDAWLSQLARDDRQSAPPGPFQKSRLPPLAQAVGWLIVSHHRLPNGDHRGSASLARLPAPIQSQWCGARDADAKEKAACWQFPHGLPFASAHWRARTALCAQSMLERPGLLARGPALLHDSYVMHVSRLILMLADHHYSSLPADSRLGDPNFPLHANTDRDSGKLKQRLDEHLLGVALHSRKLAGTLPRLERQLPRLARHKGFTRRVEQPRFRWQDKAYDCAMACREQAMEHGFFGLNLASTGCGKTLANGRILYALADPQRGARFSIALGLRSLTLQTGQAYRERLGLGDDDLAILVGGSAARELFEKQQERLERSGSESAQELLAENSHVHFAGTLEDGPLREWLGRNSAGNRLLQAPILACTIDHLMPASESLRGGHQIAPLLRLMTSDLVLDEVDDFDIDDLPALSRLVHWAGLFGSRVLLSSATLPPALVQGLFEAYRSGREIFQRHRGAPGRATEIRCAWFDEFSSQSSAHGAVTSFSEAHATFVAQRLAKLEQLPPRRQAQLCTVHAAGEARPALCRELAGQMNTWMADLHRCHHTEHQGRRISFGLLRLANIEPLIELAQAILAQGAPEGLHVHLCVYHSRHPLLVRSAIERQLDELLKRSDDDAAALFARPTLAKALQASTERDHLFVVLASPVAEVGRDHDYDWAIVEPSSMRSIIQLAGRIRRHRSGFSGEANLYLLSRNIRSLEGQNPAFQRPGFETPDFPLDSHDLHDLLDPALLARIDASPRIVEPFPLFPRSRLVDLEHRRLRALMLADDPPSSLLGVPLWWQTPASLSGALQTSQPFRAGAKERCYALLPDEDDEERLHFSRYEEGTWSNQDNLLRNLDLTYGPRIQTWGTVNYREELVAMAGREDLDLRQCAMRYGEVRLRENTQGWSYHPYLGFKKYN
The data set can be described thus: EMSA.

The next data set addresses AcrIF23 (P. aeruginosa). The data set can be described thus: MST.
A further data set addresses AcrIF3 (P. aeruginosa). The data set can be described thus: MST.

Take AcrIF1 (natural protein): in data set [1], the Kd is 420 nM.

In turn, AcrIF23 (natural protein) returned a Kd in the data set with Cas2/3 (P. aeruginosa) of 3360 nM.

B1: 54 bp target dsDNA (dsDNA)
DNA 1: GGAAGCCATCCAGGTAGACGCGGACATCAAGCCCGCCGTGAAGGTGCAGCTGCT
DNA 2: AGCAGCTGCACCTTCACGGCGGGCTTGATGTCCGCGTCTACCTGGATGGCTTCC
In the case of B1, the binding result in data set [2] and in data set [3] was “binds” throughout.

B2: 54 nt ssDNA (ssDNA)
DNA: GGAAGCCATCCAGGTAGACGCGGACATCAAGCCCGCCGTGAAGGTGCAGCTGCT
For the molecule B2, the binding result in the data set with Cas2/3 is recorded as “binds”.

B3: Cas2/3 (enzyme)
chain: MNILLVSQCEKRALSETRRILDQFAERRGERTWQTPITQAGLDTLRRLLKKSARRNTAVACHWIRGRDHSELLWIVGDASRFNAQGAVPTNRTCRDILRKEDENDWHSAEDIRLLTVMAALFHDIGKASQAFQAKLRNRGKPMADAYRHEWVSLRLFEAFVGPGSSDEDWLRRLADKRETGDAWLSQLARDDRQSAPPGPFQKSRLPPLAQAVGWLIVSHHRLPNGDHRGSASLARLPAPIQSQWCGARDADAKEKAACWQFPHGLPFASAHWRARTALCAQSMLERPGLLARGPALLHDSYVMHVSRLILMLADHHYSSLPADSRLGDPNFPLHANTDRDSGKLKQRLDEHLLGVALHSRKLAGTLPRLERQLPRLARHKGFTRRVEQPRFRWQDKAYDCAMACREQAMEHGFFGLNLASTGCGKTLANGRILYALADPQRGARFSIALGLRSLTLQTGQAYRERLGLGDDDLAILVGGSAARELFEKQQERLERSGSESAQELLAENSHVHFAGTLEDGPLREWLGRNSAGNRLLQAPILACTIDHLMPASESLRGGHQIAPLLRLMTSDLVLDEVDDFDIDDLPALSRLVHWAGLFGSRVLLSSATLPPALVQGLFEAYRSGREIFQRHRGAPGRATEIRCAWFDEFSSQSSAHGAVTSFSEAHATFVAQRLAKLEQLPPRRQAQLCTVHAAGEARPALCRELAGQMNTWMADLHRCHHTEHQGRRISFGLLRLANIEPLIELAQAILAQGAPEGLHVHLCVYHSRHPLLVRSAIERQLDELLKRSDDDAAALFARPTLAKALQASTERDHLFVVLASPVAEVGRDHDYDWAIVEPSSMRSIIQLAGRIRRHRSGFSGEANLYLLSRNIRSLEGQNPAFQRPGFETPDFPLDSHDLHDLLDPALLARIDASPRIVEPFPLFPRSRLVDLEHRRLRALMLADDPPSSLLGVPLWWQTPASLSGALQTSQPFRAGAKERCYALLPDEDDEERLHFSRYEEGTWSNQDNLLRNLDLTYGPRIQTWGTVNYREELVAMAGREDLDLRQCAMRYGEVRLRENTQGWSYHPYLGFKKYN
B3: the Kd came to 1200 nM in the data set with AcrIF23 (P. aeruginosa) and 31 nM in the data set with AcrIF3 (P. aeruginosa).

The values above are taken from article PMC9270243.
